Paper PMC10123090, “The MksG nuclease is the executing part of the bacterial plasmid defense system MksBEFG” (Nucleic Acids Research, 2023)

Tests used:
MksBEF = biological target: T1, MksBEF (Corynebacterium glutamicum, UniProt Q8NLY2); assay: EnzChek phosphate release; assay type: biochemical; details: 2 mM Mg-ATP, 30 °C, with or without 50 ng/ul plasmid DNA (pBHK18)
T1 construct: gene Cgl2804; with Kleisin subunit MksF (MukF/JetA homologue); Kite subunit MksE (MukE/JetB homologue)

[1] = biological target: MksE (His6-MksE), kite subunit of the Corynebacterium glutamicum MksBEFG complex (Corynebacterium glutamicum) (UniProt Q8NLY1); assay: BLI; BLItz, streptavidin biosensors; biotinylated bait immobilised (MksE 25 ug/ml, MksB 50 ug/ml or MksG 100 ug/ml), MksF as analyte 1-5 uM; BLI buffer 10 mM Na2HPO4, 137 mM NaCl, 2.7 mM KCl, 1.8 mM KH2PO4, 10 mM MgCl2, 5% glycerol, pH 7.4; 1:1 binding model
Chain of MksE (His6-MksE), kite subunit of the Corynebacterium glutamicum MksBEFG complex (Corynebacterium glutamicum) (Q8NLY1 entry or part of it, one chain of several): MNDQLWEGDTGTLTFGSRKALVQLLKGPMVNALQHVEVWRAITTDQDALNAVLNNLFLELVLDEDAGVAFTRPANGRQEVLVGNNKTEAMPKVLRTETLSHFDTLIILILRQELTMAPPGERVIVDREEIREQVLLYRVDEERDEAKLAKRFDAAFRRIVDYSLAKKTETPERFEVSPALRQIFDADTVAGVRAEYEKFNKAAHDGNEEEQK

[2] = biological target: MksB (His10-MksB), condensin-like ATPase subunit of the Corynebacterium glutamicum MksBEFG complex (Corynebacterium glutamicum) (UniProt Q8NLY2); assay: as above
Chain of MksB (His10-MksB), condensin-like ATPase subunit of the Corynebacterium glutamicum MksBEFG complex (Corynebacterium glutamicum) (Q8NLY2 entry or part of it, one chain of several): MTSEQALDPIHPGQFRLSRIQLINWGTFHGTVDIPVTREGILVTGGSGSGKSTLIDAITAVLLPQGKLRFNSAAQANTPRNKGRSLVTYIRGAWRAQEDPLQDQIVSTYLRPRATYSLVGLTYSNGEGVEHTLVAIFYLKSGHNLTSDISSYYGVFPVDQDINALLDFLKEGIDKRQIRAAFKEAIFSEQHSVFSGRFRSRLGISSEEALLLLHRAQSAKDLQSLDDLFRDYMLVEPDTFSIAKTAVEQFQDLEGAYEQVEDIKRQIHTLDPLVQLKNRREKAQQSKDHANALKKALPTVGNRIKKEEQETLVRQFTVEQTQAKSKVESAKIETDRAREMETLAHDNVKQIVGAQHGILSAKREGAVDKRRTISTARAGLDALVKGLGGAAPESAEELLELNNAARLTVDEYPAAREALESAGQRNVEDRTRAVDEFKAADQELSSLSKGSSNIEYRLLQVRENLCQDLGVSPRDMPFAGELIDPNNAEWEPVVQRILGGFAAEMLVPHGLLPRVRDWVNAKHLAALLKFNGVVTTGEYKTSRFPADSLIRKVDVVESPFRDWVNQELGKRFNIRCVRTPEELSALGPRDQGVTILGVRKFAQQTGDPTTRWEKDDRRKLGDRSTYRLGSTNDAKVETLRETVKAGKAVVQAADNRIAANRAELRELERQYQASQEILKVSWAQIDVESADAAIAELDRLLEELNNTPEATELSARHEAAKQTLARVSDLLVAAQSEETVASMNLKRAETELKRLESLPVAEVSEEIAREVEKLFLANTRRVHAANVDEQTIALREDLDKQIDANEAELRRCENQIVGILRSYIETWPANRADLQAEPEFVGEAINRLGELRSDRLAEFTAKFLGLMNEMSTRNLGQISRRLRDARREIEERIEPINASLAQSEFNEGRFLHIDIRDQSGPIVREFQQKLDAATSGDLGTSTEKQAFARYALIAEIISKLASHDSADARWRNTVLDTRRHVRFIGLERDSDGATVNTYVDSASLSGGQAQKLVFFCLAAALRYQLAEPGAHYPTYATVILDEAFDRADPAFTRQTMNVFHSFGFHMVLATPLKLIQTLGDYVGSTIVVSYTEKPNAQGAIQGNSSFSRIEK

[3] = biological target: the molecule itself; assay: crystal structure; X-ray, 4.6 A, solved by molecular replacement with AlphaFold2 domain models; crystals in 10% PEG 6K, 30% ethanol, 10 mM sodium acetate
[4] = biological target: T2, MksF (His6-MksF), kleisin subunit of the Corynebacterium glutamicum MksBEFG complex (Corynebacterium glutamicum, UniProt Q8NLY0 1-495); assay: BLI; BLItz, streptavidin biosensors; biotinylated bait immobilised (MksE 25 ug/ml, MksB 50 ug/ml or MksG 100 ug/ml), MksF as analyte 1-5 uM; BLI buffer 10 mM Na2HPO4, 137 mM NaCl, 2.7 mM KCl, 1.8 mM KH2PO4, 10 mM MgCl2, 5% glycerol, pH 7.4; 1:1 binding model; details: both partners purified
T2 construct: MksF of Corynebacterium glutamicum, gene mksF (cg3106), amplified from genomic DNA and ligated NdeI/BamHI into pET28a (plasmid pMG001); Analyte in the BLI experiments with constants; biotinylated (EZ-Link NHS-PEG4, ratio 3:1) where used as bait; Also purified together with MksE; also called cg3106; source: E. coli BL21 (DE3) pLysS, purified (Ni-NTA, SEC)
T2 sequence (looked up): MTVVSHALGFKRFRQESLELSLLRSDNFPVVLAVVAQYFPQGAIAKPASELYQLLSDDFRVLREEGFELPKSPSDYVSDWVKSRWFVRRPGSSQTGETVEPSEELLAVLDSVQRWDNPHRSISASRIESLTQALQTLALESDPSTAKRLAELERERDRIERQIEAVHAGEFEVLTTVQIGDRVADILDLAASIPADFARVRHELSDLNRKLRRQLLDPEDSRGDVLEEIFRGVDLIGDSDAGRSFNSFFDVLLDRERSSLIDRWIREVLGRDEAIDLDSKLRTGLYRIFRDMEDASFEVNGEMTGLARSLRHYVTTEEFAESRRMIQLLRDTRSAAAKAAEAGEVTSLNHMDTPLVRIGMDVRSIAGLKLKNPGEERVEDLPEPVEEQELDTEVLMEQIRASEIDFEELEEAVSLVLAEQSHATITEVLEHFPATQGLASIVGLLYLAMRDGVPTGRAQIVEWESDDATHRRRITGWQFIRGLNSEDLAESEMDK

T1 sequence (Q8NLY2 entry or part of it, one chain of several): as the sequence (Q8NLY2 entry or part of it, one chain of several) above
T1 sequence (Q8NLY1 entry or part of it, one chain of several, further chain): as the sequence (Q8NLY1 entry or part of it, one chain of several) above

Question: For `Nc1ncnc2c1ncn2[C@@H]1O[C@H](COP(=O)(O)OP(=O)(O)OP(=O)(O)O)[C@@H](O)[C@H]1O` [ATP], which EnzChek phosphate release (MksBEF) is on record?
Answer: The EnzChek phosphate release was “kleisin subunit MksF and the kite subunit MksE stimulated the ATPase activity of MksB”.

Question: What does the source list for “MksF (His6-MksF), kleisin subunit of the Corynebacterium glutamicum MksBEFG complex (from UniProt Q8NLY0 1-495) (natural protein)”?
Answer: Kd [1]: 2.17 µM; koff [1]: 0.16 s⁻¹; kon [1]: 74200 M⁻¹ s⁻¹; Kd [2]: 4.94 µM; koff [2]: 0.138 s⁻¹; kon [2]: 27800 M⁻¹ s⁻¹

B1: MksG, 6xHis-SUMO-tagged construct for crystallization (enzyme, Corynebacterium glutamicum)
chain: MPLFIDDALHRSKKYFHAHLSELLLGEFAGLSLPLHPPTAAKAAADIDATREFIRQWEGRDDVEYAIRNWSPVGLGKTEVPVRLTLNTTEELVVFAQVEDEWSSLHERFSQLSGFTAEVVAKHVSLWRSLSNDDLSKAVLVVDWFLKHPNSGLLKRAVAVEGVHTKWLENHRVLIETLVADKRGEPGRADLGLGDAEARVRLRFHSVDAPAGLTDIEVPLSNLCELQEPQVILMVENLDSFLALPTWPGVTIAWGAGYRAVDIVRGPYFSNGRLLYWGDLDLDGFKILDGVRSHVPHTESVLMNSETVSRWRYLGVADREFKAESFDNLHDFESDALDLLITDGELRIEQERIRLDVAVEEIEKVIRG
notes: MksG of Corynebacterium glutamicum (cg3103), amplified from pMG003 and subcloned into a pET28 derivative with an N-terminal 6xHis-SUMO tag; The methods tell of no cleavage of the 6xHis-SUMO tag before crystallization; also called 6xHis-SUMO-MksG; source: E. coli BL21 C41, purified (Ni-NTA, SEC)
Question: How did the “stoichiometry N” value [3] turn out when B1 was run?
Answer: Its value is 2.

B2: MksG (His6-MksG), nuclease subunit of the Corynebacterium glutamicum MksBEFG complex (enzyme)
chain: MPLFIDDALHRSKKYFHAHLSELLLGEFAGLSLPLHPPTAAKAAADIDATREFIRQWEGRDDVEYAIRNWSPVGLGKTEVPVRLTLNTTEELVVFAQVEDEWSSLHERFSQLSGFTAEVVAKHVSLWRSLSNDDLSKAVLVVDWFLKHPNSGLLKRAVAVEGVHTKWLENHRVLIETLVADKRGEPGRADLGLGDAEARVRLRFHSVDAPAGLTDIEVPLSNLCELQEPQVILMVENLDSFLALPTWPGVTIAWGAGYRAVDIVRGPYFSNGRLLYWGDLDLDGFKILDGVRSHVPHTESVLMNSETVSRWRYLGVADREFKAESFDNLHDFESDALDLLITDGELRIEQERIRLDVAVEEIEKVIRG
notes: MksG of Corynebacterium glutamicum, gene mksG (cg3103), amplified from genomic DNA and ligated NdeI/BamHI into pET28a (plasmid pMG003); Biotinylated (EZ-Link NHS-PEG4, ratio 3:1) where used as bait in BLI; The methods speak of 'dimeric MksG'; also called cg3103; source: E. coli BL21 (DE3) pLysS, purified (Ni-NTA, SEC)
Question: Which results are given for B2?
Answer: Kd [4]: 6 µM; koff [4]: 0.136 s⁻¹; kon [4]: 22500 M⁻¹ s⁻¹
